Conditions in all cases: both partners purified
The target in test [1] is T1, PIK3R1 N-terminal SH2 domain (human).
T1 construct: PIK3R1, human; source: bacterial expression, purified
Kind of test: fluorescence polarisation; saturation binding in solution: rhodamine peptide fixed at 10 nM, protein titrated 0.002-10 uM, 20 min at room temperature; assay buffer 20 mM HEPES, 100 mM KCl, 0.1% Tween-20, 5 mM DTT, pH 7.8; apparent KD. In general terms: Polarisation of emitted light reports the rotation of a fluorescent probe.

Test [2] concerns the target T2, PIK3R3 C-terminal SH2 domain (human).
T2 construct: PIK3R3, human; source: bacterial expression, purified
Described as above.

Test [3] has as its target T3, PLCG1 C-terminal SH2 domain (human).
T3 construct: PLCG1, human; source: bacterial expression, purified
T3 sequence (P19174 whole entry, looked up): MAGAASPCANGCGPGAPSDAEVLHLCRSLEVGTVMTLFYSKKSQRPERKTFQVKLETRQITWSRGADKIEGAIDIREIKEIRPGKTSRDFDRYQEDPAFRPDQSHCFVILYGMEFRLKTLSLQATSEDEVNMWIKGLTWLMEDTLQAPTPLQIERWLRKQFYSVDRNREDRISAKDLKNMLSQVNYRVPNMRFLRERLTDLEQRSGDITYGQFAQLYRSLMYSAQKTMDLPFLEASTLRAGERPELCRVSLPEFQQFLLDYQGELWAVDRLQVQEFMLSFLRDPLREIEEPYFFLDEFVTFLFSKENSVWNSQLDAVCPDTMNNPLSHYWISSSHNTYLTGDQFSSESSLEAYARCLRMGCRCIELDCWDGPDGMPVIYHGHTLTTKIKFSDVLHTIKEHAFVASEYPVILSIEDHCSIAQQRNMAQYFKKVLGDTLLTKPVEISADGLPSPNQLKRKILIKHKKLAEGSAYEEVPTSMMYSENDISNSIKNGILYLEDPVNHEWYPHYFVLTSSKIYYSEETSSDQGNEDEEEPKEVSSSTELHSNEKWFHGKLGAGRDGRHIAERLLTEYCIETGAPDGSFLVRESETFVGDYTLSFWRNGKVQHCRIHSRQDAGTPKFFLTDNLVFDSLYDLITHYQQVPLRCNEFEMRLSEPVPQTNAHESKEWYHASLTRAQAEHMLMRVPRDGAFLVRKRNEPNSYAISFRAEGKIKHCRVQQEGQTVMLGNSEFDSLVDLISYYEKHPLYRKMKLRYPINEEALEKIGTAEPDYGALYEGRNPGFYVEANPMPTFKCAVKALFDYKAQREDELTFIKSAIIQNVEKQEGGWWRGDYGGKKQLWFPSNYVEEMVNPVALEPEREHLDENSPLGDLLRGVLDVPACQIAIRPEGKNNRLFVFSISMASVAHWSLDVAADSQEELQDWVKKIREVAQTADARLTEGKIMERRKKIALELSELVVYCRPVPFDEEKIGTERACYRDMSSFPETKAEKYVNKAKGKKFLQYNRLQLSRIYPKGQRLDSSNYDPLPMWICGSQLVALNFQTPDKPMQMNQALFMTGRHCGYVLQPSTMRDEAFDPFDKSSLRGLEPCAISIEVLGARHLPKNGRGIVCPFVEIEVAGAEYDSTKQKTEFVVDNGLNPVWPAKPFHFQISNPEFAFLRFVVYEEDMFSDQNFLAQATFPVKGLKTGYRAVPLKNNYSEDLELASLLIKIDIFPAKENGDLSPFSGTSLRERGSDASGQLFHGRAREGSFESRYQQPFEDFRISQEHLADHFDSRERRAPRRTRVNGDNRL
The test is described as above.

Test [4] concerns the target T4, PTK6 SH2 domain (human, UniProt Q13882 78-170).
T4 construct: PTK6, human; SH2 domain; source: bacterial expression culture, purified
Kind of test: fluorescence polarisation; saturation binding in solution; rhodamine-labeled peptide fixed at 10 nM, protein titrated 0.002-10 µM (twelve two-fold dilutions); 20 minutes at room temperature in the dark; assay buffer 20 mM HEPES, 100 mM KCl, 0.1% Tween-20, 5 mM DTT, pH 7.8; apparent KD; assay detection threshold of 20 µM.
T4 sequence (Q13882 78-170): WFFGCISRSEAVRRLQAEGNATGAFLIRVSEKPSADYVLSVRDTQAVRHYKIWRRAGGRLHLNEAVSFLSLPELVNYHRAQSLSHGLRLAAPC

For another test, the target named is T5, GRB7 SH2 domain (human, UniProt Q14451 431-527).
T5 construct: GRB7, human; source: bacterial expression, purified
T5 sequence (Q14451 431-527): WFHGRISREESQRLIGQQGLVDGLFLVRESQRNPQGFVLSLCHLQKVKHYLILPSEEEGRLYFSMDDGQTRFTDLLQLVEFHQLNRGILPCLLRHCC
Kind of test: fluorescence polarisation; competition: rhodamine peptide 10 nM, protein at four times its KD, unlabeled competitor peptide in 11 serial 1:3 dilutions; Ki from IC50, one-site model.

Another test addresses T6, GRB2 SH2 domain (human, UniProt P62993 60-152).
T6 construct: GRB2, human; source: bacterial expression, purified
The test is described as above.

The target of test [5] is T7, PTK6 SH2 domain (human, UniProt Q13882 78-170).
T7 construct: PTK6, human; source: bacterial expression, purified
Kind of test: fluorescence polarisation; saturation binding in solution: rhodamine peptide fixed at 10 nM, protein titrated 0.002-10 uM, 20 min at room temperature; assay buffer 20 mM HEPES, 100 mM KCl, 0.1% Tween-20, 5 mM DTT, pH 7.8; apparent KD.
T7 sequence (Q13882 78-170): as the sequence (Q13882 78-170) above

For test [6], the target named is T3, PLCG1 C-terminal SH2 domain. Kind of test: SPR; Biacore 3000; 6X His SH2 proteins held on a Ni-NTA chip, dye-free peptides in solution, equilibrium. Background: SPR reads the build-up and loss of mass on a sensor chip optically.
Test [7] deals with T1, PIK3R1 N-terminal SH2 domain. The test is described as above.
Test [8] addresses T2, PIK3R3 C-terminal SH2 domain. Described as above.
Test [9] concerns the target T4, PTK6 SH2 domain. The test can be described thus: fluorescence polarisation; competition; fluorescent peptide 10 nM, protein at four times the calculated KD, unlabeled competitor peptide at 11 serial 1:3 dilutions; at least 20 minutes; IC50 from a four-parameter log-logistic fit, one-site competition model.

Non-standard residues stand in square brackets, D forms with d. No end group written: not given here. pY = N[C@@H](Cc1ccc(OP(=O)(O)O)cc1)C(=O)O; Rhodamine = not defined here; rhodamine = not defined here Bounds are passed on as bounds.

T6 sequence (P62993 60-152): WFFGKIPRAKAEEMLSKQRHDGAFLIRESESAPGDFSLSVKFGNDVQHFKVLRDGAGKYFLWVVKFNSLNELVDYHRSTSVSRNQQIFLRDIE

In the case of Rhodamine-DPQD[pY]LLLINCQD (reading uncertain) [Gab1 pY183 phosphopeptide, rhodamine-labelled], the values for the Kd in [1], in test [2] and in [3] were 4.26 µM, 3.79 µM and 2.04 µM, respectively.

Rhodamine-FGTV[pY]KGIWIPD (reading uncertain) [ErbB2-pY735 phosphopeptide, rhodamine-labelled]: in the test with PTK6 SH2 domain [4], the Kd is at least 20 µM.

B1: ErbB3pY1197 phosphopeptide, unlabeled competitor (peptide)
peptide: EDEE[pY]EYMNRRRD
notes: human ErbB3 around Tyr1197; source: synthetic peptide
For the molecule B1, the affinity with GRB7 SH2 domain, expressed as Ki, was 0.113 µM.

B2: ErbB4pY1208 phosphopeptide, unlabeled competitor (peptide)
peptide: NEPL[pY]LNTFANTD
notes: human ErbB4 around Tyr1208; source: synthetic peptide
Regarding B2, the affinity with GRB2 SH2 domain, expressed as Ki, was 6.85 µM.

In the case of Rhodamine-QEAN[pY]VPMTPGTD (reading uncertain) [Gab1 pY472 phosphopeptide, rhodamine-labelled], the Kd in [1] worked out at 2.33 µM; in test [2], 0.255 µM.

B3: ErbB3pY1289 phosphopeptide, rhodamine-labelled (peptide)
peptide: rhodamine-SEQG[pY]EEMRAFQD
modifications: reading uncertain
notes: human ErbB3 around Tyr1289; also called labeled peptide 7; source: synthetic peptide
For the molecule B3, the Kd in the test with PTK6 SH2 domain [5] turned out to be 2.11 µM.

Molecule NNYV[pY]IDPTQLPD [KIT pY570 phosphopeptide, dye-free] showed a Kd in test [6] of 1.36 µM.

Take rhodamine-FGCV[pY]HGTLLDND (reading uncertain) [MET pY1093 phosphopeptide, rhodamine-labelled]: the Kd in [2] came out at 2.56 µM.

Consider QEAN[pY]VPMTPGTD [Gab1 pY472 phosphopeptide, dye-free], for which the Kd in test [7] was 0.251 µM; in [8], 0.018 µM.

For Rhodamine-NNYV[pY]IDPTQLPD (reading uncertain) [KIT pY570 phosphopeptide, rhodamine-labelled], in test [3], the Kd amounted to 3.83 µM.

FGTV[pY]KGIWIPD [ErbB2-pY735 phosphopeptide, unlabeled competitor]: in the test with PTK6 SH2 domain [9], the half-inhibitory concentration (IC50) is 148 µM.

In turn, FGCV[pY]HGTLLDN [MET pY1093 phosphopeptide, dye-free] came in with a Kd in [8] of 3.55 µM.

B4: ErbB3pY1260 phosphopeptide, unlabeled competitor (peptide)
peptide: PDED[pY]EYMNRQRD
notes: human ErbB3 around Tyr1260; source: synthetic peptide
The molecule B4 came in with a Ki in the test with GRB7 SH2 domain of 0.131 µM.

B5: ErbB2pY1139 phosphopeptide, unlabeled competitor (peptide)
peptide: PQPE[pY]VNQPDVRD
notes: human ErbB2 around Tyr1139; source: synthetic peptide
On to B5, for which affinity with GRB2 SH2 domain was put at a Ki of 1.71 µM.

In test [8], TNHI[pY]SNLANCS [KIT pY936 phosphopeptide, dye-free] gave a Kd of 0.004 µM.

Turning to DPQD[pY]LLLINCQD [Gab1 pY183 phosphopeptide, dye-free], the Kd in test [7] is 0.722 µM; in test [8], 0.137 µM; in test [6], 0.146 µM.

In general, Ki refers to a dissociation constant, usually derived from enzyme kinetics or from competition with a known ligand. In general, IC50 refers to the concentration needed to halve the response being measured.
